Measurements from US9284543B2, “Neutral active soluble truncated PH20 polypeptides and uses thereof” (Halozyme, Inc., priority 2008, dated 2016).

Columns and labels:
[1] = bHA enzymatic assay of PH20 transiently expressed in lectin resistant CHO mutants; format: biochemical; conditions: pH5.5; for PH20 Activity (1:27): 1:27 dilution; for PH20 Activity (1:81): 1:81 dilution
Experimental: (§1) In short, a 4×BH 96-well plate was coated with biotinylated-HA (1.1 MDa). The 72 hour post transfection supernatant from cells transfected with human PH20 hyaluronidase carboxy-terminus deletion mutants was diluted in buffer at either pH 7.4 or pH 5.5 and added to individual wells of the plate and allowed to incubate at 37° C. for 90 minutes. The reaction was terminated by addition of 4M guanidine HCl. The wells were washed 4× with Phosphate Buffered Saline with Tween20 (PBST) to remove any digested biotinylated-HA followed by addition of streptavidin-HRP for 1 hour at room temperature. The wells were washed 4× with PBST and the plate was developed with TMB. The plate was read at 450 nm using an ELISA plate reader. Hyaluronidase activity (in Units/mL) was determined by interpolating the measured absorbance at 450 nm with a hyaluronidase reference standard curve. Full length mature human PH20 hyaluronidase and untransfected CHO cells were used as positive and negative controls.
The resulting cell culture media was analyzed by Western blot analysis and hyaluronidase activity was measured using the biotinylated HA enzymatic assay (as described in Examples 3 and 5 above).

CHO-S cells [2] = assay: Western blot analysis of PH20 expression in media and cells after transient expression; format: cell-based, Chinese Hamster; conditions: media versus cells
Method in brief: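 PH20 expression and solubility were judged by anti-PH20 Western blot of non-reduced media and cell fractions, with expression shown by a ~66 kDa band. Samples came from CHO-S cells transiently transfected (GeneJuice) with mutant PH20-HZ24 DNA and cultured 48-72 h. GPI-anchored mutants were cleaved with PI-PLC to release soluble protein.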

CHO-S cells [3] = assay: PI-PLC treatment of expressing cells, Western blot of media and cells; format: cell-based, Chinese Hamster; conditions: cells incubated with PI-PLC for 2 hours
Method in brief: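 CHO-S cells transiently expressing rHuPH20 or C-terminal truncation mutants were treated with PI-PLC (0.5 units/well, or 3.0 units/dish in serum/detergent-free medium) for 2 h at 37 °C after 48–72 h expression. Untreated and treated media and cell extracts were analysed separately by Western blot for PH20.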

[4] = Microtiter hyaluronidase activity assay with biotinylated-hyaluronic acid; format: biochemical; conditions: 72 hour post transfection supernatant
[5] = Triton X-114 partition assay; format: physicochemical; conditions: partition into aqueous phase of Triton X-114 at 37° C.
Experimental: Solubility of a hyaluronidase can be determined by any method known to one of the skill in the art. One method for determining solubility is by detergent partitioning. […] For example, the solubility of the PH20 polypeptides described herein is assessed as described in Example 4. Membrane-anchored hyaluronidases, such as lipid-anchored hyaluronidases, including GPI-anchored hyaluronidases, will partition into the detergent-rich phase, but will partition into the detergent-poor or aqueous phase following treatment with Phospholipase C. Phospholipase C is an enzyme that cleaves the […] found in GPI-anchored proteins. Treatment with PLC will cause release of GPI-linked proteins from the outer cell membrane.
The samples were heated to 37° C. for 3 minutes to induce phase separation and centrifuged for 3 min at 4000 g at room temperature. Aqueous and detergent phases were removed for SDS-PAGE analysis and Western blotting. Rabbit anti-PH20 IgG (0.5 μg/mL) was used as the primary antibody and HRP-conjugated goat anti-Rabbit IgG (0.1 ng/mL, Cat#DC03L, EMD) was used as the secondary antibody. Full length human PH20, which partitions strongly into the detergent phase, was used as a control.

[6] = Hyaluronidase activity of N-glycan site specific deglycosylation mutants (biotinylated-HA assay); format: biochemical; conditions: media of transfected CHO-S cells
Experimental: as §1
PH20sHis (SEQ ID NO:210) was used as a template for mutagenesis of each asparagine residue to alanine using QuikChange® Site-Directed Mutagenesis Kit (Cat No. 200518, Stratagene). […] Six single mutants were generated, one for each of the N-glycosylation sites. Additionally, three double mutants and a triple mutant were generated for asparagines N82, N166 and N254, all of which are occupied by complex type glycans. Finally, a double mutant N368A/N393A was generated, lacking high mannose glycans. The mutants were transfected into CHO—S cells and expression was performed as described in Example 2A. Secretion into the media and hyaluronidase activity were determined as described in Examples 3 and 5, above.

Row | Molecule | PH20 Activity (1:27) ([1]; expressed in Pro-5 cells) | PH20 Activity (1:81) ([1]; expressed in Pro-5 cells) | Expressed in Media (CHO-S cells [2]) | Expressed in Media Following Addition of PI-PLC (CHO-S cells [3]) | pH 5.5 Activity ([4]; Table 6) | pH 7.4 Activity ([4]; Table 6) | Soluble [5] | PH20 Activity (1:27) ([1]; expressed in Lec1 cells) | PH20 Activity (1:81) ([1]; expressed in Lec1 cells) | PH20 Activity (1:27) ([1]; expressed in Lec2 cells) | PH20 Activity (1:81) ([1]; expressed in Lec2 cells) | PH20 Activity (1:27) ([1]; expressed in Lec8 cells) | PH20 Activity (1:81) ([1]; expressed in Lec8 cells) | Activity pH 5.5 ([6]; pH 5.5) | Activity pH 7.4 ([6]; pH 7.4) | pH 5.5 Activity ([4]; Table 6A) | pH 7.4 Activity ([4]; Table 6A)
1 | HZ24-mut(B/S): plasmid encoding PH20 truncated at amino acid 482, SEQ ID NO:122 (protein, listed as Homo sapiens, soluble rHuPH20 36-482) LNFRAPPVIPNVPFLWAWNAPSEFCLGKFDEPLDMSLFSFIGSPRINATGQGVTIFYVDRLGYYPYIDSITGVTVNGGIPQKISLQDHLDKAKKDITFYMPVDNLGMAVIDWEEWRPTWARNWKPKDVYKNRSIELVQQQNVQLSLTEATEKAKQEFEKAGKDFLVETIKLGKLLRPNHLWGYYLFPDCYNHHYKKPGYNGSCFNVEIKRNDDLSWLWNESTALYPSIYLNTQQSPVAATLYVRNRVREAIRVSKIPDAKSPLPVFAYTRIVFTDQVLKFLSQDELVYTFGETVALGASGIVIWGTLSIMRSMKSCLLLDNYMETILNPYIINVTLAAKMCSQVLCQEQGVCIRKNWNSSDYLHLNPDNFAIQLEKGGKFTVRGKPTLEDLEQFSEKFYCSCYSTLSCKEKADVKDTDAVDVCIADGVCIDAFLKPPMETEEPQIFY | 0.6615 U/mL | 1.1745 U/mL | – | – | – | – | – | – | – | – | – | – | – | – | – | – | –
2 | SPAM1-STLS: C-terminally truncated human PH20, precursor 490 aa (SEQ ID NO:13), mature 455 aa (SEQ ID NO:65) (protein, listed as Homo sapiens, HuPH20 precursor 1-490; mature HuPH20 36-490) chain 1: MGVLKFKHIFFRSFVKSSGVSQIVFTFLLIPCCLTLNFRAPPVIPNVPFLWAWNAPSEFCLGKFDEPLDMSLFSFIGSPRINATGQGVTIFYVDRLGYYPYIDSITGVTVNGGIPQKISLQDHLDKAKKDITFYMPVDNLGMAVIDWEEWRPTWARNWKPKDVYKNRSIELVQQQNVQLSLTEATEKAKQEFEKAGKDFLVETIKLGKLLRPNHLWGYYLFPDCYNHHYKKPGYNGSCFNVEIKRNDDLSWLWNESTALYPSIYLNTQQSPVAATLYVRNRVREAIRVSKIPDAKSPLPVFAYTRIVFTDQVLKFLSQDELVYTFGETVALGASGIVIWGTLSIMRSMKSCLLLDNYMETILNPYIINVTLAAKMCSQVLCQEQGVCIRKNWNSSDYLHLNPDNFAIQLEKGGKFTVRGKPTLEDLEQFSEKFYCSCYSTLSCKEKADVKDTDAVDVCIADGVCIDAFLKPPMETEEPQIFYNASPSTLS chain 2: LNFRAPPVIPNVPFLWAWNAPSEFCLGKFDEPLDMSLFSFIGSPRINATGQGVTIFYVDRLGYYPYIDSITGVTVNGGIPQKISLQDHLDKAKKDITFYMPVDNLGMAVIDWEEWRPTWARNWKPKDVYKNRSIELVQQQNVQLSLTEATEKAKQEFEKAGKDFLVETIKLGKLLRPNHLWGYYLFPDCYNHHYKKPGYNGSCFNVEIKRNDDLSWLWNESTALYPSIYLNTQQSPVAATLYVRNRVREAIRVSKIPDAKSPLPVFAYTRIVFTDQVLKFLSQDELVYTFGETVALGASGIVIWGTLSIMRSMKSCLLLDNYMETILNPYIINVTLAAKMCSQVLCQEQGVCIRKNWNSSDYLHLNPDNFAIQLEKGGKFTVRGKPTLEDLEQFSEKFYCSCYSTLSCKEKADVKDTDAVDVCIADGVCIDAFLKPPMETEEPQIFYNASPSTLS | – | – | YES | Initially in media | 1.2375 Units/ml | 0.819 Units/ml | YES | – | – | – | – | – | – | – | – | – | –
3 | HZ24-PH20sHis: his-tagged PH20 (SEQ ID NO:187), human PH20 clone with HexaHis tag after amino acid S490 (protein, His6 tag; PH20sHis) MGVLKFKHIFFRSFVKSSGVSQIVFTFLLIPCCLTLNFRAPPVIPNVPFLWAWNAPSEFCLGKFDEPLDMSLFSFIGSPRINATGQGVTIFYVDRLGYYPYIDSITGVTVNGGIPQKISLQDHLDKAKKDITFYMPVDNLGMAVIDWEEWRPTWARNWKPKDVYKNRSIELVQQQNVQLSLTEATEKAKQEFEKAGKDFLVETIKLGKLLRPNHLWGYYLFPDCYNHHYKKPGYNGSCFNVEIKRNDDLSWLWNESTALYPSIYLNTQQSPVAATLYVRNRVREAIRVSKIPDAKSPLPVFAYTRIVFTDQVLKFLSQDELVYTFGETVALGASGIVIWGTLSIMRSMKSCLLLDNYMETILNPYIINVTLAAKMCSQVLCQEQGVCIRKNWNSSDYLHLNPDNFAIQLEKGGKFTVRGKPTLEDLEQFSEKFYCSCYSTLSCKEKADVKDTDAVDVCIADGVCIDAFLKPPMETEEPQIFYNASPSTLSHHHHHH | 0.297 U/mL | 0.6075 U/mL | – | – | – | – | – | 0.54 U/mL | 0.7695 U/mL | 0.675 U/mL | 1.053 U/mL | 0.2565 U/mL | 0.567 U/mL | YES | YES | – | –
4 | SPAM1-PSTL: C-terminally truncated human PH20, precursor 489 aa (SEQ ID NO:12), mature 454 aa (SEQ ID NO:64) (protein, listed as Homo sapiens, HuPH20 precursor 1-489; mature HuPH20 36-489) chain 1: MGVLKFKHIFFRSFVKSSGVSQIVFTFLLIPCCLTLNFRAPPVIPNVPFLWAWNAPSEFCLGKFDEPLDMSLFSFIGSPRINATGQGVTIFYVDRLGYYPYIDSITGVTVNGGIPQKISLQDHLDKAKKDITFYMPVDNLGMAVIDWEEWRPTWARNWKPKDVYKNRSIELVQQQNVQLSLTEATEKAKQEFEKAGKDFLVETIKLGKLLRPNHLWGYYLFPDCYNHHYKKPGYNGSCFNVEIKRNDDLSWLWNESTALYPSIYLNTQQSPVAATLYVRNRVREAIRVSKIPDAKSPLPVFAYTRIVFTDQVLKFLSQDELVYTFGETVALGASGIVIWGTLSIMRSMKSCLLLDNYMETILNPYIINVTLAAKMCSQVLCQEQGVCIRKNWNSSDYLHLNPDNFAIQLEKGGKFTVRGKPTLEDLEQFSEKFYCSCYSTLSCKEKADVKDTDAVDVCIADGVCIDAFLKPPMETEEPQIFYNASPSTL chain 2: LNFRAPPVIPNVPFLWAWNAPSEFCLGKFDEPLDMSLFSFIGSPRINATGQGVTIFYVDRLGYYPYIDSITGVTVNGGIPQKISLQDHLDKAKKDITFYMPVDNLGMAVIDWEEWRPTWARNWKPKDVYKNRSIELVQQQNVQLSLTEATEKAKQEFEKAGKDFLVETIKLGKLLRPNHLWGYYLFPDCYNHHYKKPGYNGSCFNVEIKRNDDLSWLWNESTALYPSIYLNTQQSPVAATLYVRNRVREAIRVSKIPDAKSPLPVFAYTRIVFTDQVLKFLSQDELVYTFGETVALGASGIVIWGTLSIMRSMKSCLLLDNYMETILNPYIINVTLAAKMCSQVLCQEQGVCIRKNWNSSDYLHLNPDNFAIQLEKGGKFTVRGKPTLEDLEQFSEKFYCSCYSTLSCKEKADVKDTDAVDVCIADGVCIDAFLKPPMETEEPQIFYNASPSTL | – | – | YES | Initially in media | 1.089 Units/ml | 1.557 Units/ml | YES | – | – | – | – | – | – | – | – | 3.321 Units/ml | 1.985 Units/ml
